Results from the domain aggregation screens of Martell et al. (2025).

Experiment: soluble fraction after stress (log2 fold change); higher = more stays soluble; pooled small domains, quantitative proteomics
Conditions: stress: 75 degC
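Also: 20 min heating vs room temperature control held 20 min.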

Going from “HMSSKFKIVGEILSIKKSDILYIIEILSNNEVVKATAVEDEIKDLKIGDKILLSSKAFNPIVNK” to “HMSSLTDNFVKALSYYLALSGKSKKEVADGIGIPPTTFSSWSNGKHLPDMDRLQNLATYLGAPVSEFFDFT”, the “soluble fraction (log2)” value rises from -2.29 to 0.238.

First: HMSSPVGIAQATTYVYVRAGHSMQAAKVGVLSPGEKVGVTGRSAQGFSEVVYNGVHRWVGSRYLSPT
Second: HMSSQWWYSAGGERKGPVDFATLRGLYVQGAIDGRTLAWREDMQGWEAVNDIPDLEPLRRAVPPEL
The “soluble fraction (log2)” value of the first is lower: -4.43 for the first, -0.0747 for the second.

Going from “HMSSRSLSYSDFIERVDAGQVSKVVMDGERLVVVGQDGTSYVTIKPPGDQVTENLSRELISKGVEVEAEPQ” to “HMSSRSLTYSDFIERVDAGQVDAVTLDGERIVIRAKDGNTYVAIKPQGEDVTGSLTRDLIAKGVDVEAEPQ”, the “soluble fraction (log2)” value rises from -0.0305 to 0.204.

“HMSSSDYDVYNKAINLMLNLLKEPKSIEEVTASLNITKSQAITWINRALNEGKIIKTNRPVRYVVNN” and “HMSSSYMVRITTSVLNVRKGPGTNYGITTKVKKGEVYTIVAEEKNGNTTWGKLKSGTGYISLGYTER” are within 0.2 log units of each other in “soluble fraction (log2)” value: -1.39 for the first, -1.21 for the second.

Going from “HMSSSYVYGGNGEIVILSDVSKHLNVYNLNGQKVTDVNLTAGELQRISIATGIYVVGGKKIVV” to “HMSSVGELEVGNIFEGTVNSVRGGKVLLALGNGQMVLAQMDGRVNITPGSSMFFQVKSNDGETVAIRPYTG”, the “soluble fraction (log2)” value rises from -3.52 to -0.247.

First: HMSSWAEGLTERERHTLMWITKGLSNKLIARELGISDSTVKVYVKNLLRKLNVNSRLELAAWVHTHPL
Second: HMSSYTQEDVRSGILYMAQLKPRNIEEFVSTLAFSKDDIMDNLSFLVDEGFLKFDADTDTYFNPVPL
The “soluble fraction (log2)” value of the first is lower: -1.2 for the first, -0.374 for the second.

Going from “HMSTADGGYPSIVINDGRVIDTNLQKLGLDRSWLSAELKRQGKGSEKDIFLMTVNQRREVYISVKEA” to “HMSTEAFLGTEGEVVLPLLPDGLGKIRLHVADQDVELPARTGGEPIQIRERVVVVRFRDGIAEVEPAP”, the “soluble fraction (log2)” value rises from -1.89 to 0.0378.

Compared with “HMSTEDYLKTIYILESQQGVHGSDVARMLKVTRPTVSIALKALEQEGYVWMDESRLVHLTDSGLQIAKDT”, “HMSTESAHLGERMLNQALRAMHIEPDQITEAHWQKLIRDYGLKKKSEILTDIGLGKRQNVMVAHQLLAMG” is higher in “soluble fraction (log2)” value: -0.914 for the first, -0.539 for the second.

Compared with “HMSTFKSYRGKITASSGVNIRTGAGTNYNKNGALTYNSVVTIVDEKKVSGTTWGKLADGRGWISLDYLKK”, “HMSTGGDLTQRERELLGLMARGLSNQEISKRLTIAMPTVKFHVTNILAKLHADNRTEAVLVALKNKLVAL” is higher in “soluble fraction (log2)” value: -2.04 for the first, -1.02 for the second.

Going from “HMSTINGIEKYLSSGLIPYIGPKTAKRIVEKFGLDTLEIIQYNPERLKEIEGIGDKKLKKIVEAFEEQG” to “HMSTISPNAFNFLQQNLNKFSDDAEGKMIKDILSKTTYDEYVKNEKSKTDFNSLLRRQTTTGDDNLNRYIN”, the “soluble fraction (log2)” value rises from -0.245 to -0.00511.

First: HMSTKEFTIHAGEWSYRVSQKLENLGLVSDAKKFDQYLEDNGYSSKIKIGHYTISKDADFEEIAKEIT
Second: HMSTKRGEILEFLKDFSARKGYAPSVREIMQAVGLKSTASVHYHLSELHKAGLITVDGTKNRAISLA
The “soluble fraction (log2)” value of the first is higher: 0.632 for the first, -1.11 for the second.

Compared with “HMSTMKSKWFVSSNPIAGVMKYQAQRKKDVNAVDSSENREASGQWYTDKEEAQAIVDKLNAEEQIKEAGK”, “HMSTMLPFVMRELVELVMKKKALPLGDALYYIYSSKLYKSLLDKSTKLWYSSTLSLYETLEKEKTEEKRRY” is lower in “soluble fraction (log2)” value: -0.0426 for the first, -2.04 for the second.

First: HMSTMTDAQRHLFANKLSQLPEMGKYSHGTESYQQFAVRIAEMLQTPKKFKELYPYLQKVGFKA
Second: HMSTNYVQVLRAALNGVSGRKLAQQYRVSRDTVAILLRQAKIQGWQRAEDLENITEEDLVALLSG
The “soluble fraction (log2)” value of the first is higher: -0.379 for the first, -2.43 for the second.

Going from “HMSTPLPTGLPRGTIIEYTVQTDETLAIIAAKFNSTVDDIMTRNKITDPNTIYAGQILKVAINLVTP” to “HMSTPVPIEGQPTENLNLRDQPSTSGKILTTIPKGKTVTILSEKNANGWYKVSYNGKTGYVSGSYFKVTK”, the “soluble fraction (log2)” value rises from -1.62 to 0.916.

First: HMSTSERLKQVMEVKGFNLKTFSEQADIPYRTLQNYILTNREPSAESLAKLHSQLGINLNWLMSGKGEMF
Second: HMSTSIADNSSITYKVRKGDSLASIAKRHGVNINDVMRWNSVITKASQIQPGDMLTLYVRDS
The “soluble fraction (log2)” value of the first is lower: -0.685 for the first, 0.148 for the second.

Compared with “HMSTTALLEKMVRYIRTLPVISQVVLSLHYYRGMELREIASELDITESRASQLHTTAVLGIRDLLSSY”, “HMSTTGIVKWFNEEKGFGFITQDQGGADVFVHYRAIASEGFKTLAEGQKVSFEVEQGQKGLQAANVQA” is higher in “soluble fraction (log2)” value: -3.11 for the first, 0.333 for the second.

“HMSTTHLTASVIKDKVNVRSEADSQNGAIIDKARTGERLLVTDYGNKWTGIVLPDGKRGYIMTEYLQF” and “HMSTTSYTQFMEDAKAGKIARVDIKGREITVTPTEGSRYVITSPGDLWMVDDLRKDGVQVYGPP” are within 0.2 log units of each other in “soluble fraction (log2)” value: -0.114 for the first, 0.0558 for the second.

Going from “HMSTTYLNEGDRITLTDSVNIRTSMSETADRVGLAYQGDVVTVIMSYAEGWTKVSWNGQTGYAKTEYL” to “HMSTVIENVFKNFEVYEIKKGDTFYNIEKRFGVNRQELLVLNPELKEGLKLGMVLKIKEIIP”, the “soluble fraction (log2)” value falls from -1.52 to -3.02.

First: HMSTYTETETAYLKAYSAAGVDGKISDSERGILNMTAEALGITVERTTELEAMFNLTVEEEA
Second: HMSVDIWTGAQTGNIEAVKQHLADGVDVNSKSDIGRTALDVAIAFKQPLITDLLRKHGGKTRDELKAAE
The “soluble fraction (log2)” value of the first is lower: -0.0838 for the first, ≥ 1.04 for the second.

With “HMSVEVADITRAYYEGVGFEWWIRSVRLDPNELIVDNDDEGKLYRVPFEINGEEVTFGDPVEVKIRYE” the “soluble fraction (log2)” value was -0.995.
